Measured values as given in article doi:10.1101/2021.07.20.453048.

Molecular target: Taxol-stabilized microtubules polymerised from purified bovine brain tubulin (bovine) (UniProt Q6B856)
Assay: co-sedimentation

Kd: 160 nM
B1: His-MBP-ENKD1 (maltose-binding protein fusion of full-length human Enkurin domain containing 1) (natural protein)
chain: MCEGPSRISGPIPPDPTLCPDNYRRPTSAQGRLEGNALKLDLLTSDRALDTTAPRGPCIGPGAGEILERGQRGVGDVLLQLEGISLGPGASLKRKDPKDHEKENLRRIREIQKRFREQERSREQGQPRPLKALWRSPKYDKVESRVKAQLQEPGPASGTESAHFLRAHSRCGPGLPPPHVSSPQPTPPGPEAKEPGLGVDFIRHNARAAKRAPRRHSCSLQVLAQVLEQQRQAQEHYNATQKGHVPHYLLERRDLWRREAEARKQSQPDPAMPPGHTRMPENQRLETLTKLLQSQSQLLRELVLLPAGADSLRAQSHRAELDRKLVQVEEAIKIFSRPKVFVKMDD
